The numbers were not newly measured in article PMC5662687, which cites them from elsewhere.

The data set addresses ICAM-1 (Homo sapiens) (UniProt P05362).

LFA-1, sequence (P20701 26-1090): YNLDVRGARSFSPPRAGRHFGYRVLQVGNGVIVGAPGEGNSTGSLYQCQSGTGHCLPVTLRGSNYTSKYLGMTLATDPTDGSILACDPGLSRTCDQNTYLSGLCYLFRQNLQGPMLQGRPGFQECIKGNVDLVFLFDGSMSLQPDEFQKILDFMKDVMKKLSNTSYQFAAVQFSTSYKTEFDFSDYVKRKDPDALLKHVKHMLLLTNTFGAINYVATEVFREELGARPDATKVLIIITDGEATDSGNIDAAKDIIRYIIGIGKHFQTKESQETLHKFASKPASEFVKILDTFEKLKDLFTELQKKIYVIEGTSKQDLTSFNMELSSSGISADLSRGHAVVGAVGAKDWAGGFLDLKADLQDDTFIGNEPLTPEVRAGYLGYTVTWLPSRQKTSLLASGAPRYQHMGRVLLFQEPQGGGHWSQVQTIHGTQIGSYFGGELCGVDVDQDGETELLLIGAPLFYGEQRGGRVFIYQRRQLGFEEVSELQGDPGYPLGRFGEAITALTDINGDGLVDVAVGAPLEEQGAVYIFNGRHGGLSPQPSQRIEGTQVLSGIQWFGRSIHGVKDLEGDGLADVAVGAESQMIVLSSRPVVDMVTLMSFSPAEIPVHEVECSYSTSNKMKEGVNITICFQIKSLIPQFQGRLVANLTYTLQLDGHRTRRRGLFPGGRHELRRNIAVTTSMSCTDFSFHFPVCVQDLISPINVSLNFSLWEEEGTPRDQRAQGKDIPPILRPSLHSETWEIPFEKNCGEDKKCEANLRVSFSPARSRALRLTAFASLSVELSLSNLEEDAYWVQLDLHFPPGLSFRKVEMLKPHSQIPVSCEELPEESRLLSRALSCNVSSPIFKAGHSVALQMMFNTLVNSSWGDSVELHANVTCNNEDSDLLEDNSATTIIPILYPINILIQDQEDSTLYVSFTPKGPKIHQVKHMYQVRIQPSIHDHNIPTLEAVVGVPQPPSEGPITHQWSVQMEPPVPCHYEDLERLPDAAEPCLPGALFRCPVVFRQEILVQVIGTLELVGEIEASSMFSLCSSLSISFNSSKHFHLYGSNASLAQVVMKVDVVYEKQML
LFA-1, sequence (P05107 23-700, further chain): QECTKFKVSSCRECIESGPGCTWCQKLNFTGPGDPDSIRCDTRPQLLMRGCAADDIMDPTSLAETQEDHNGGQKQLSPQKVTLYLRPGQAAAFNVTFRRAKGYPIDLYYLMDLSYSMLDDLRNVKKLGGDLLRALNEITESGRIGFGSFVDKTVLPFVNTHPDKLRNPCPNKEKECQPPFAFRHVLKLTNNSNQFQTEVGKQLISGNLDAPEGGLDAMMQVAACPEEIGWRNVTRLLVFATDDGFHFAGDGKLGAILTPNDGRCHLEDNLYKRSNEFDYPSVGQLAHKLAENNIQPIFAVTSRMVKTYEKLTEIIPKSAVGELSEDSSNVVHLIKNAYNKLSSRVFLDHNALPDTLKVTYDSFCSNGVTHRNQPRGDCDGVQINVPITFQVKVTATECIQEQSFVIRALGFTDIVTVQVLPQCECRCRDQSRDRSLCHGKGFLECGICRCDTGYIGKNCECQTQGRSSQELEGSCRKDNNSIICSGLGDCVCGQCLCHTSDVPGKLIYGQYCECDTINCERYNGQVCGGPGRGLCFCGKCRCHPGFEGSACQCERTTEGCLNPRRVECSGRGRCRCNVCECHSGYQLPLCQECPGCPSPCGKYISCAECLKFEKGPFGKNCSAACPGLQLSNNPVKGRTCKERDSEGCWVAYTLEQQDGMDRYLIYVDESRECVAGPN
ICAM-1 (Homo sapiens), sequence (P05362 28-480): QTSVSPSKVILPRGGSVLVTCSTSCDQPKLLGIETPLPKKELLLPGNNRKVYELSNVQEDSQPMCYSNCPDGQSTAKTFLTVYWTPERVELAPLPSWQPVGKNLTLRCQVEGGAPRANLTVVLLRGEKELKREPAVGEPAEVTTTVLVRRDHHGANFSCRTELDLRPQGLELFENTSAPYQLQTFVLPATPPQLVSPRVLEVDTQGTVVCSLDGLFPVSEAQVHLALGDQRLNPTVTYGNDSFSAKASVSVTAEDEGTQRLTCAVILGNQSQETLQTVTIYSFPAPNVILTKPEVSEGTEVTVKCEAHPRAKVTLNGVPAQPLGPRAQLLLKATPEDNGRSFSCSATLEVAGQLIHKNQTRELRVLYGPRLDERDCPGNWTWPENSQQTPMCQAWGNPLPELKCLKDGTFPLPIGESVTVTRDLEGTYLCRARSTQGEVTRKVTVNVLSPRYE

Broadly, the Kd is a measure of binding affinity in units of concentration. In the case of LFA-1 (from UniProt P20701), the dissociation constant (Kd) is 1000 µM.
